The target in this test is SARS-CoV-2 native Spike (S) trimer (Acro Biosystems) (SARS-CoV-2), P0DTC2. The test is described as follows: ELISA on spike trimer. The conditions noted are these: remark: other sources report otherwise. A general note: An ELISA detects its analyte on a solid surface through an enzyme-linked reagent.

B1: AB-009281 (antibody, V domains shown)
VH: EVQLVETGGGLIQPGGSLRLSCAASGFTVSSNYMSWVRQAPGKGLEWVSVIYSGGSTYYADSVKGRFTISRDNSKNTLYLQMNSLRAEDTAVYYCARDLYYYGMDVWGQGTTVTVSS
VL: DIQLTQSPSFLSASVGDRVTITCRASQGISSYLAWYQQKPGKAPKLLIYAASTLQSGVPSRFSGSGSGTEFTLTISSLQPEDFATYYCQQLNSYPTFGQGTKVEIK
Turning to B1, the OD (450 nm) was 2.6 OD (450 nm).

B2: AB-009620 (antibody, V domains shown)
VH: QITLKESGPTLVKPTQTLTLTCTFSGFSLSTSGVGVGWIRQPPGKALEWLALIYWDDDKRYSPSLKSRLTITKDTSKNQVVLTMTNMDPVDTATYYCAHHEVATVFDYWGQGTLVTVSS
VL: QSALTQPASVSGSPGQSITISCTGTSSDVGAYNYVSWYQQHPGKAPKLMIYEVSNRPSGVSNRFSGSKSGNTASLTISGLQAEDEADYYCSSYTSSSTVFGGGTKLTVL
Take B2: the OD (450 nm) is 2.7 OD (450 nm).

B3: AB-009769 (antibody, V domains shown)
VH: EVQLVESGGGLVQPGGSLRLSCAASGFTFSSYWMSWVRQAPGKGLEWVANIKQDGSEKYYVDSVKGRFTISRDNAKNSLYLQMNSLRAEDTAVYYCARSPEVLWFGDPVLDNWFDPWGQGTLVTVSS
VL: SYELTQPPSVSVSPGQTARITCSGDALPKQYAYWYQQKPGQAPVLVIYKDSERPSGIPERFSGSSSGTTVTLTISGVQAEDEADYYCQSADSSGTYPVVFGGGTKLTVL
Turning to B3, the OD (450 nm) was 2.87 OD (450 nm).

B4: AB-009615 (antibody, V domains shown)
VH: QVQLVESGGGVVQPGRSLRLSCAASGFTFSSYGMHWVRQAPGKGLEWVAVIWYDGSNKYYADSVKGRFTISRDNSKNTLYLQMNSLRAEDTAVYYCAKVGSPYCSGGSCYSGYFDYWGQGTLVTVSS
VL: not shown
In the case of B4, the OD (450 nm) was 2.8 OD (450 nm).

B5: AB-009734 (antibody, V domains shown)
VH: QVHLVQSGAEVKTPGASVRVSCKASGYTFTSHYMHWVRQAPGQGLEWMGLINPSGSGTAYPQHFQGRVTMTRDTSTTTDYMDLSSLRSEDTAMYFCARMERSGAFDLWGQGTMVTVSS
VL: EIVLTQSPGTLSLSPGERATLSCRASQTISSRYLAWYYQKPGQAPRLLIQGSSIRATGIPDRFSGSGSGTDFTLTISRLEPEDFAVYYCQHYGSSPPMYTFGQGTKLEIK
B5: the OD (450 nm) was 3.57 OD (450 nm).

B6: AB-009614 (antibody, V domains shown)
VH: QVQLVESGGGVVQPGRSLRLSCAASGFTFSSYGMHWVRQAPGKGLEWVAVISYDGSNKYYADSVKGRFTISRDNSKNTLYLQMNSLRAEDTAVYYCAKDQKYYDILTGYYRSTYYYYYYGMDVWGQGTTVTVSS
VL: not shown
As for B6, the OD (450 nm) is 0.361 OD (450 nm).

B7: AB-009346 (antibody, V domains shown)
VH: EVQLVESGGGVVRPGGSLRLSCAASGFTFDDYGMSWVRQAPGKGLEWVSGINWNGGSTGYADSVKGRFTISRDNAKNSLYLQMNSLRAEDTALYYCARWPLLGISGYYHYYMDVWGKGTTVTVSS
VL: QSALTQPRSVSGSPGQSVTISCTGTSSDVGGYNYVSWYQQHPGKAPKLMIYDVSKRPSGVPDRFSGSKSGNTASLTISGLQAEDEADYYCCSYAGSYTLLFGGGTKLIVL
As to B7, the OD (450 nm) was 2.55 OD (450 nm).

B8: AB-009661 (antibody, V domains shown)
VH: QVQLVESGGGVVQPGRSLRLSCAASGFTFSSYGMHWVRQAPGKGLEWVAVISYDGSNKYYADSVKGRFTISRDNSKNTLYLQMNSLRAEDTAVYYCAKDYGDYGGMDVWGQGTTVTVSS
VL: not shown
On to B8, for which the OD (450 nm) was 2.86 OD (450 nm).

B9: AB-009358 (antibody, V domains shown)
VH: QVHLVQSGAEVKKPGASVKISCKASGYTFTSYYVHWVRQAPGQGLEWMGIIKPSGAGTIYAQKFQGRVTMTRDTSTSTVYMELSSLISEDTAVYYCARGGGVTDRDYWGQGTLVTVSS
VL: QSALTQEASVSATVGQKVTLSCTGNTNNIGGYAVGWHQQISHGAPKTVMFGNSLPSGIPDRFSGSKSGTTASLIISGLQPEDEADYYCSTWDSSLGAVLFGGGTKLTVL
With B9, the OD (450 nm) was 2.76 OD (450 nm).

The values are drawn from patent US20240301038A1.
